For one substance, stoichiometry N results are on record in doi:10.1101/710897.

The assay deals with UapA K73A/R133A/R421A/T401P, purified, detergent-solubilized (Aspergillus nidulans) (UniProt Q07307). As to the kind of experiment: native MS.

What is called stoichiometry N is the number of molecules, sites or subunits per partner or assembly. “UapA K73A/R133A/R421A/T401P, purified, detergent-solubilized (from UniProt Q07307 1-574) (natural protein)” showed a stoichiometry N of 2.
